# Assay results reported in patent US20260201048A1 (NANJING BIOHENG BIOTECH, published 2026).
# T1: Human IRP60 protein (Kactus) (human, UniProt Q9UGN4 18-178, limits assumed)
# T1 construct: Commercial soluble protein used as the flow cytometry staining reagent; also called CD300a
# T1 sequence (looked up): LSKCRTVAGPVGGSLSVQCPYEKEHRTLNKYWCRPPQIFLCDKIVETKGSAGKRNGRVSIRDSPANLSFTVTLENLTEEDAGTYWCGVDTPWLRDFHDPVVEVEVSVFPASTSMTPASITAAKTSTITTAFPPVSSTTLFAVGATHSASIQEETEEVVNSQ
# B1: immunosuppressive molecule targeting SIRPa (anti-SIRPa scFv, IgG4 hinge region, CD28 transmembrane region, CD28 co-stimulatory domain), expressed on CAR19-α T … (scFv)
# chain: EVQLVESGGGLVQPGGSLRLSCAASGFNISYYFIHWVRQAPGKGLEWVASVYSSFGYTYYADSVKGRFTISADTSKNTAYLQMNSLRAEDTAVYYCARFTFPGLFTGFFGAYLGSLDYWGQGTLVTVSSGGGSGGGSGGGSDIQMTQSPSSLSASVGDRVTITCRASQSVSSAVAWYQQKPGKAPKLLIYSASSLYSGVPSRFSGSRSGTDFTLTISSLQPEDFATYYCQQAVNWVGALVTFGQGTKVEIKRESKYGPPCPPCPFWVLVVVGGVLACYSLLVTVAFIIFWVRSKRSRLLHSDYMNMTPRRPGPTRKHYQPYAPPRDFAAYRS
# notes: Membrane-anchored scFv on B2M-knockout T cells that also express a CD19 CAR; also called anti-SIRPa antibody
# B2: immunosuppressive molecule targeting IRP60 (anti-IRP60 scFv, IgG4 hinge region, CD28 transmembrane region, CD28 co-stimulatory domain), expressed on CAR19-60 T … (scFv)
# chain: EVQLQQSGAELVKPGASVKLSCKASGYTFTSYWMQWVKQRPGQGLEWIGEIDPSDSYTNYNQKFKGKATLTVDTSSSTTYMQLSSLTSEDSAVYYCARWGMAYGTSSYWYFDVWGTGTTVTVSSAGGGSGGGSGGGSDIQMTQTTSSLSASLGDRVTISCRASQDISNYLNWYQQKPDGTVKLLIYYTSRLHSGVPSRFSGSGSGTDYSLTISNLEQEDIATYFCQQGNTLPWTFGGGTKLEIKESKYGPPCPPCPFWVLVVVGGVLACYSLLVTVAFIIFWVRSKRSRLLHSDYMNMTPRRPGPTRKHYQPYAPPRDFAAYRS
# notes: Membrane-anchored scFv on B2M-knockout T cells that also express a CD19 CAR; also called anti-IRP60 antibody
# Columns and labels:
# [1] = target: T2, Human SIRPa protein (Acro) (human, UniProt P78324 31-370, limits assumed); assay: flow cytometry; CAR19-α T cells stained with soluble human SIRPa protein
# T2 construct: Commercial soluble protein used as the flow cytometry staining reagent; also called SIRPα; signal regulatory protein a
# T2 sequence (P78324 31-370 limits assumed): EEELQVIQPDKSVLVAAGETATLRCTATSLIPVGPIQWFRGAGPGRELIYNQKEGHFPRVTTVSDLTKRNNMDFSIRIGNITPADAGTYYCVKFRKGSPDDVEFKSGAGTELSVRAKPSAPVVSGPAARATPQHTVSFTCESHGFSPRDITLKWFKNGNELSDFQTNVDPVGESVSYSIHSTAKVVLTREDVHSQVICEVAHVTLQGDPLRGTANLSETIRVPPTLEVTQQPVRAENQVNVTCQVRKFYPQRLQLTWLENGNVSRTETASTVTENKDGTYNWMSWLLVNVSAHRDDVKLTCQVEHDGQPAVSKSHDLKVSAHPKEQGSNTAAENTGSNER
# Text: Using a flow cytometry, the expression of anti-CD19 scFv in CAR-T cells was detected with FITC goat anti-human Fab (Thermo Fisher), and the expression of anti-SIRPa scFv was detected with Human SIRPa protein (Acro). It can be seen that all the CARs in the CAR-T cells prepared in this example can be effectively expressed (FIG. 7), and the immunosuppressive molecule in CAR19-α T cells can also be effectively expressed (FIG. 8).
# [2] = target: T1, Human IRP60 protein (Kactus); assay: flow cytometry; CAR19-60 T cells stained with soluble human IRP60 protein
# Text: Using a flow cytometry, the expression of anti-CD 19 scFv in CAR-T cells was detected with FITC goat anti-human Fab (Thermo Fisher), and the expression of anti-IRP60 scFv was detected with Human IRP60 protein (Kactus). It can be seen that all the CARs in the CAR-T cells prepared in this example can be effectively expressed (FIG. 12), and the immunosuppressive molecule in CAR19-60 T cells can also be effectively expressed (FIG. 13).
Binder,binding result [1],binding result [2]
B1,binds,
B2,,binds
